These results are taken from article PMC9992855, “Functional polyamine metabolic enzymes and pathways encoded by the virosphere” (Proceedings of the National Academy of Sciences of the …, 2023).

Broadly, the Km is the substrate concentration at which the rate is half of its maximum. Broadly, the kcat is the number of substrate molecules converted per active site and unit of time at saturation. The kcat/Km is the turnover number divided by the Michaelis constant.

Substrate in the data set: CC(=O)NCCCNCCCCN
The data set can be described thus: colorimetric acetate release. Conditions: 26 °C. It counts as biochemical, Mycoplana ramosa. From the text:
colorimetric acetate release on M. ramosa APAH

B1: M. ramosa APAH (Mycoplana ramosa) (protein)
chain: MRVIFSEDHKLRNAKTELYGGELVPPFEAPFRAEWILAAVKEAGFDDVVAPARHGLETVLKVHDAGYLNFLETAWDRWKAAGYKGEAIATSFPVRRTSPRIPTDIEGQIGYYCNAAETAISPGTWEAALSSMASAIDGADLIAAGHKAAFSLCRPPGHHAGIDMFGGYCFINNAAVAAQRLLDKGAKKIAILDVDFHHGNGTQDIFYERGDVFFASLHGDPAEAFPHFLGYAEETGKGAGAGTTANYPMGRGTPYSVWGEALTDSLKRIAAFGAEAIVVSLGVDTFEQDPISFFKLTSPDYITMGRTIAASGVPLLVVMEGGYGVPEIGLNVANVLKGVAG
notes: 341 aa; positive comparative control enzyme
For B1, the Km is 630 ± 40 µM, the catalytic constant (kcat) amounted to 5.8 ± 0.14 s⁻¹ and the kcat/Km is 9300 ± 450 M⁻¹ s⁻¹.
